Measured values as given in patent EP3988566A1.

Target: soluble polymeric amyloid beta (UniProt P05067)
Assay: ELISA, plate coated with amyloid oligomer (55 µg/ml), anti-mouse IgG-AP detection

Sequence of soluble polymeric amyloid beta (P05067 672-713): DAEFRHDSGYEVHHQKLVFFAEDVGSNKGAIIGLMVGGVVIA

B1: mouse monoclonal antibody ACI-01-Ab7C2 (antibody, mouse IgG2b, V domains shown)
VH: EVQLVESGGGLVQPGGSLKLSCAASGFTFSSYGMSWVRQTPDKRLELVASINSNGGSTYYPDSVKGRFTISRDNAKNTLYLQMSSLKSEDTAMYYCASGDYWGQGSTLTVSS
VL: DVVMTQTPLSLPVSLGDQASISCRSSQSLVYSNGDTYLHWYLQKPGQSPKLLIYKVSNRFSGVPDRFSGSGSGTDFTLKISRVEAEDLGVYFCSQSTHVPWTFGGGTKLEIK
For B1, the O.D. at 0.078 ug/ml antibody was 0.652 O.D, the O.D. at 0.156 ug/ml antibody was 1.04 O.D and the O.D. at 0.312 ug/ml antibody was 1.72 O.D. It also gave an O.D. at 0.625 ug/ml antibody of 2.81 O.D.
